This is an account of results in article PMC7614720.

Substrate in the data set: C[C@@H](O)[C@H]1C(=O)N2C(C(=O)O)=C([C@H]3CCCO3)S[C@H]12
Put plainly: purified protein. Conditions: two Zn2+ ions active site. It is filed as biochemical, Stenotrophomonas maltophilia.

B1: L1 (Stenotrophomonas maltophilia) (protein)
chain: VDASWLQPMAPLQIADHTWQIGTEDLTALLVQTPDGAVLLDGGMPQMASHLLDNMKARGVTPRDLRLILLSHAHADHAGPVAELKRRTGAKVAANAESAVLLARGGSDDLHFGDGITYPPANADRIVMDGEVITVGGIVFTAHFMAGHTPGSTAWTWTDTRNGKPVRIAYADSLSAPGYQLQGNPRYPHLIEDYRRSFATVRALPCDVLLTPHPGASNWDYAAGARAGAKALTCKAYADAAEQKFDGQLAKETAGAR
For B1, the Michaelis-Menten constant (Km) (in general, the concentration of substrate that gives half-maximal velocity) is 36.3 µM; the kcat (in general, the number of substrate molecules converted per active site and unit of time at saturation) worked out at 43.7 s⁻¹; the kcat/Km – broadly, the second-order rate constant that governs catalysis at low substrate concentration – was determined as 1.2e+06 M⁻¹ s⁻¹.
